Source: IntAct's records for PubMed 12351681

B1: Protein Tube (Drosophila melanogaster (Fruit fly)), P22812 (parent)
chain: MAYGWNGCGMGVQVNGSNGAIGLSSKYSRNTELRRVEDNDIYRLAKILDENSCWRKLMSIIPKGMDVQACSGAGCLNFPAEIKKGFKYTAQDVFQIDEAANRLPPDQSKSQMMIDEWKTSGKLNERPTVGVLLQLLVQAELFSAADFVALDFLNESTPARPVDGPGALISLELLEEEMEVDNEGLSLKYQSSTATLGADAQGSVGLNLDNFEKDIVRRDKSVPQPSGNTPPIAPPRRQQRSTTNSNFATLTGTGTTSTTIPNVPNLTILNPSEQIQEPVLQPRPMNIPDLSILISNSGDLRATVSDNPSNRTSSTDPPNIPRITLLIDNSGDVNSRPNHAPAKASTATTSTASSNNLPMISALNISKGSRETLRPESRSSSSSLSKDDDDDNDGEEDGEEEYPDAFLPNLSNSEQQSSNNDSSLTTVTGTSGDNSFELTNDSSSTSNDDYACNIPDLSELQQ
partner: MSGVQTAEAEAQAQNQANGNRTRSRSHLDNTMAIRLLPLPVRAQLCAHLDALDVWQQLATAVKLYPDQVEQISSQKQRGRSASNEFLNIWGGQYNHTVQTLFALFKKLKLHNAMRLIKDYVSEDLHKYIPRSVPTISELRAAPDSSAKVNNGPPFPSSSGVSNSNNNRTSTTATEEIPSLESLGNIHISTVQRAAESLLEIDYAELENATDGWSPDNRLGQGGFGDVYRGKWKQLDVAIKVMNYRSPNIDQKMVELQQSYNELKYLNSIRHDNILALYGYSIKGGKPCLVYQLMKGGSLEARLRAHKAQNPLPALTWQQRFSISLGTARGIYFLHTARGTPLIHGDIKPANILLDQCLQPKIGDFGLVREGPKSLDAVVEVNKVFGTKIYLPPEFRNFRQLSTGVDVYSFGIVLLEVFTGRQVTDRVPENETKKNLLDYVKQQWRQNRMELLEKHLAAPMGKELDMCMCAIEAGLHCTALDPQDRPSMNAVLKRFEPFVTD

Variants of: B1
Conditions: with kpel_drome pll

| Variant | effect of a mutation on the interaction |
| --- | --- |
| MAYGWNGCGMGVQVNGSNGAIGLSSKYSRNTELRRVEDNDIYRLAKILDKNSCWRKLMSIIPKGMDVQACSGAGCLNFPAEIKKGFKYTAQDVFQIDEAANRLPPDQSKSQMMIDEWKTSGKLNERPTVGVLLQLLVQAELFSAADFVALDFLNESTPARPVDGPGALISLELLEEEMEVDNEGLSLKYQSSTATLGADAQGSVGLNLDNFEKDIVRRDKSVPQPSGNTPPIAPPRRQQRSTTNSNFATLTGTGTTSTTIPNVPNLTILNPSEQIQEPVLQPRPMNIPDLSILISNSGDLRATVSDNPSNRTSSTDPPNIPRITLLIDNSGDVNSRPNHAPAKASTATTSTASSNNLPMISALNISKGSRETLRPESRSSSSSLSKDDDDDNDGEEDGEEEYPDAFLPNLSNSEQQSSNNDSSLTTVTGTSGDNSFELTNDSSSTSNDDYACNIPDLSELQQ [E50K] | decreasing interaction |
